Measured values as given in US11306156.
One block for each substance: values may come before it.

How the values were obtained:
[1] = target: Cetuximab light chain Q124E_V133W_S176T_T178L_T180E; assay: SMCA co-expression, LC-MS; competing light chain m2
[2] = target: Cetuximab light chain F116A_V133G_L135V_S176R; assay: SMCA co-expression, LC-MS; competing light chain m36
[3] = target: Cetuximab light chain F116A_V133G_L135V_S176R; assay: SMCA co-expression, LC-MS; competing light chain m36; estimated change (***)
[4] = target: Cetuximab light chain V133G_N137K_S174R_S176R; assay: SMCA co-expression, LC-MS; competing light chain m16; estimated change (***)
[5] = target: Cetuximab light chain V133G_N137K_S174R_S176R; assay: SMCA co-expression, LC-MS; competing light chain m24
[6] = target: Cetuximab light chain Q124R_V133A_S176T_T178R; assay: SMCA co-expression, LC-MS; competing light chain m12
[7] = target: Cetuximab light chain Q124R_V133A_S176T_T178R; assay: SMCA co-expression, LC-MS; competing light chain m12; estimated change (***)
[8] = target: D3H44 light chain Q124E_Q160E_T180E; assay: SMCA: four chains co-expressed in CHO-3E7, protein A, LC-MS; competing light chain m21
[9] = target: D3H44 light chain Q124E_Q160E_T180E; assay: SMCA: four chains co-expressed in CHO-3E7, protein A, LC-MS; competing light chain m24
[10] = target: D3H44 light chain Q124E_V133E; assay: SMCA: four chains co-expressed in CHO-3E7, protein A, LC-MS; competing light chain m45
[11] = target: D3H44 light chain Q124E_V133E; assay: SMCA: four chains co-expressed in CHO-3E7, protein A, LC-MS; competing light chain m35
[12] = target: D3H44 light chain Q38R_Q124R_Q160K_T178R; assay: SMCA: four chains co-expressed in CHO-3E7, protein A, LC-MS; competing light chain m41
[13] = target: D3H44 light chain Q38E_Q124E_Q160E_T180E; assay: SMCA: four chains co-expressed in CHO-3E7, protein A, LC-MS; competing light chain m28
[14] = target: D3H44 light chain Q124E_Q160E_T180E; assay: SMCA: four chains co-expressed in CHO-3E7, protein A, LC-MS; competing light chain m18
[15] = target: D3H44 light chain Q124E_Q160E_T178E; assay: SMCA: four chains co-expressed in CHO-3E7, protein A, LC-MS; competing light chain m35
[16] = target: D3H44 light chain Q124E_Q160E_T180E; assay: SMCA: H1, H2, L1, L2 co-expressed in CHO-3E7, protein A, LC-MS; competitor light chain m44
[17] = target: D3H44 light chain Q124E_N137K_Q160E_S174R_T180E; assay: SMCA: 2 heavy + 2 light chains co-expressed, protein A, LC-MS; competing light chain m38
[18] = target: D3H44 light chain F116A_V133G_L135V_S176R; assay: SMCA co-expression, LC-MS; competing light chain m32
[19] = target: D3H44 light chain F116A_V133G_L135V_S176R; assay: SMCA co-expression, LC-MS; competing light chain m32; estimated change (***)
[20] = target: D3H44 light chain F116A_V133G_L135V_S176R; assay: SMCA: 2 heavy + 2 light chains co-expressed, protein A, LC-MS; competing light chain m58
[21] = target: D3H44 light chain F116A_V133G_L135V_S176R; assay: SMCA co-expression, LC-MS; competing light chain m36
[22] = target: D3H44 light chain F116A_V133G_L135V_S176R; assay: SMCA co-expression, LC-MS; competing light chain m36; estimated change (***)
[23] = target: D3H44 light chain V133G_N137K_S174R_S176R; assay: SMCA: 2 heavy + 2 light chains co-expressed, protein A, LC-MS; competing light chain m48
[24] = target: D3H44 light chain V133G_N137K_S174R_S176R; assay: SMCA co-expression, LC-MS; competing light chain m20
[25] = target: D3H44 light chain V133G_N137K_S174R_S176R; assay: SMCA co-expression, LC-MS; competing light chain m24
[26] = target: D3H44 light chain Q124R_V133A_S176T_T178R; assay: SMCA co-expression, LC-MS; competing light chain m8
[27] = target: D3H44 light chain Q124R_V133A_S176T_T178R; assay: SMCA co-expression, LC-MS; competing light chain m12
[28] = target: D3H44 light chain Q124R_Q160K_T178R; assay: SMCA: H1, H2, L1, L2 co-expressed in CHO-3E7, protein A, LC-MS; competitor light chain m28
[29] = target: D3H44 light chain Q38R_S131K; assay: SMCA: H1, H2, L1, L2 co-expressed in CHO-3E7, protein A, LC-MS; competitor light chain m4
[30] = target: D3H44 light chain Q38E_Q124E_Q160E_T180E; assay: SMCA: H1, H2, L1, L2 co-expressed in CHO-3E7, protein A, LC-MS; competitor light chain m8
[31] = target: Trastuzumab light chain P44F_S131K; assay: SMCA: four chains co-expressed in CHO-3E7, protein A, LC-MS; competing light chain m16
[32] = target: Trastuzumab light chain P44F_Q124R_Q160K_T178R; assay: as above
[33] = target: Trastuzumab light chain Q38R_S131K; assay: SMCA: four chains co-expressed in CHO-3E7, protein A, LC-MS; competing light chain m26
[34] = target: Trastuzumab light chain Q38E_Q124E_Q160E_T180E; assay: SMCA: four chains co-expressed in CHO-3E7, protein A, LC-MS; competing light chain m39
[35] = target: cetuximab light chain of SMCA design 9820-9823_1 (trastuzumab/cetuximab bispecific system), Q38R_Q124R_Q160K_T178R; assay: SMCA, LC-MS after co-expression of the four chains; difference from the wild-type trastuzumab/cetuximab construct at the same DNA ratio
[36] = target: cetuximab light chain of SMCA design 9820-9823_1 (trastuzumab/cetuximab bispecific system), Q38R_Q124R_Q160K_T178R; assay: SMCA: H1, H2, L1 and L2 co-expressed in CHO-3E7 cells, protein A purification, deglycosylation, LC-MS; competing light chain is the trastuzumab light chain (L1)
[37] = target: trastuzumab light chain of SMCA design 9820-9823_1 (trastuzumab/cetuximab bispecific system), Q38E_Q124E_Q160E_T180E; assay: SMCA, LC-MS after co-expression of the four chains; difference from the wild-type trastuzumab/cetuximab construct at the same DNA ratio
[38] = target: trastuzumab light chain of SMCA design 9820-9823_1 (trastuzumab/cetuximab bispecific system), Q38E_Q124E_Q160E_T180E

Change in % H2L2 Pairing (over all H2 species) with respect to wild type [1]: 1.7%
Substance: Cetuximab heavy chain L124A_L143F_Q179K

% H2L2 Pairing (over all H2 species) [6]: 58.1%
Change in % H2L2 Pairing (over all H2 species) with respect to wild type [7]: 33%
Substance: Cetuximab heavy chain L124W_L143E_K145T_Q179E

% H1L1 Pairing (over all H1 species) [9]: 100%
Substance: D3H44 full-length heavy chain H172R_S186R (from UniProt P0DOX5 2-448)

% H1L1 Pairing (over all H1 species) [13]: 100%
Substance: D3H44 full-length heavy chain Q39R_S186R (from UniProt P0DOX5 2-448)

% H1L1 Pairing (over all H1 species) [15]: 98.2%
Substance: D3H44 full-length heavy chain S186K (from UniProt P0DOX5 2-448)

% H1L1 Pairing (over all H1 species) [17]: 100%
Substance: D3H44 heavy chain H172T_Q179K (from UniProt P0DOX5 2-448)

% H1L1 Pairing (over all H1 species) [23]: 100%
% H1L1 Pairing (over all H1 species) [24]: 100%
Change in % H1L1 Pairing (over all H1 species) with respect to wild type [24]: 38.1%
% H1L1 Pairing (over all H1 species) [25]: 50.5%
Change in % H1L1 Pairing (over all H1 species) with respect to wild type [25]: 9.9%
Substance: D3H44 heavy chain L124E_H172T (from UniProt P0DOX5 2-448)

% H1L1 Pairing (over all H1 species) [28]: 100%
Substance: D3H44 heavy chain L143E_K145T_H172R (from UniProt P0DOX5 2-448)

% H1L1 Pairing (over all H1 species) [29]: 100%
Substance: D3H44 heavy chain Q39E_K145T_Q179E (from UniProt P0DOX5 2-448)

% H1L1 Pairing (over all H1 species) [30]: 100%
Substance: D3H44 heavy chain Q39R_S186R (from UniProt P0DOX5 2-448)

% H2L2 Pairing (over all H2 species) [31]: 96.3%
Substance: Trastuzumab full-length heavy chain L45P_K145T_H172R_Q179E (from UniProt P0DOX5 2-448)

% H2L2 Pairing (over all H2 species) [32]: 94.8%
Substance: Trastuzumab full-length heavy chain L45P_L143E_K145T (from UniProt P0DOX5 2-448)

% H2L2 Pairing (over all H2 species) [33]: 94.3%
Substance: Trastuzumab full-length heavy chain Q39E_K145T_Q179E (from UniProt P0DOX5 2-448)

Change in % H1L1 Pairing (over all H1 species) with respect to wild type [37]: 6%
% H1L1 Pairing (over all H1 species) [38]: 100%
Substance: trastuzumab full-length heavy chain of SMCA design 9820-9823_1 (trastuzumab/cetuximab bispecific system), Q39R_H172R_Q179K (from UniProt P0DOX5 2-448)

More lines, now with the values behind:

Substance: Cetuximab heavy chain L124E_A139W
% H2L2 Pairing (over all H2 species) [2]: 42.1%
Change in % H2L2 Pairing (over all H2 species) with respect to wild type [3]: 17%

Substance: Cetuximab heavy chain L124E_H172T
Change in % H2L2 Pairing (over all H2 species) with respect to wild type [4]: 1.6%
% H2L2 Pairing (over all H2 species) [5]: 44%
Change in % H2L2 Pairing (over all H2 species) with respect to wild type [5]: 14.4%

Substance: D3H44 full-length heavy chain D146G_Q179K (from UniProt P0DOX5 2-448)
% H1L1 Pairing (over all H1 species) [8]: 100%

Substance: D3H44 full-length heavy chain L143R (from UniProt P0DOX5 2-448)
% H1L1 Pairing (over all H1 species) [10]: 89.2%
% H1L1 Pairing (over all H1 species) [11]: 97.1%

Substance: D3H44 full-length heavy chain Q39E_L143E_K145T_Q179E (from UniProt P0DOX5 2-448)
% H1L1 Pairing (over all H1 species) [12]: 86.6%

Substance: D3H44 full-length heavy chain Q179K (from UniProt P0DOX5 2-448)
% H1L1 Pairing (over all H1 species) [14]: 100%

Substance: D3H44 heavy chain D146G_Q179K (from UniProt P0DOX5 2-448)
% H1L1 Pairing (over all H1 species) [16]: 100%

Substance: D3H44 heavy chain L124E_A139W (from UniProt P0DOX5 2-448)
% H1L1 Pairing (over all H1 species) [18]: 100%
Change in % H1L1 Pairing (over all H1 species) with respect to wild type [19]: 43.3%
% H1L1 Pairing (over all H1 species) [20]: 100%
% H1L1 Pairing (over all H1 species) [21]: 46.8%
Change in % H1L1 Pairing (over all H1 species) with respect to wild type [22]: 25.8%

Substance: D3H44 heavy chain L124W_L143E_K145T_Q179E (from UniProt P0DOX5 2-448)
Change in % H1L1 Pairing (over all H1 species) with respect to wild type [26]: 40.4%
% H1L1 Pairing (over all H1 species) [27]: 47.7%
Change in % H1L1 Pairing (over all H1 species) with respect to wild type [27]: 7.1%

Substance: Trastuzumab full-length heavy chain Q39R_H172R_Q179K (from UniProt P0DOX5 2-448)
% H2L2 Pairing (over all H2 species) [34]: 100%

Substance: cetuximab full-length heavy chain of SMCA design 9820-9823_1 (trastuzumab/cetuximab bispecific system), Q39E_L143E_K145T_Q179E
Change in % H2L2 Pairing (over all H2 species) with respect to wild type [35]: 22.7%
% H2L2 Pairing (over all H2 species) [36]: 52.3%
